Target: T1, murine IFNγ receptor (murine, UniProt P15261)
T1 sequence: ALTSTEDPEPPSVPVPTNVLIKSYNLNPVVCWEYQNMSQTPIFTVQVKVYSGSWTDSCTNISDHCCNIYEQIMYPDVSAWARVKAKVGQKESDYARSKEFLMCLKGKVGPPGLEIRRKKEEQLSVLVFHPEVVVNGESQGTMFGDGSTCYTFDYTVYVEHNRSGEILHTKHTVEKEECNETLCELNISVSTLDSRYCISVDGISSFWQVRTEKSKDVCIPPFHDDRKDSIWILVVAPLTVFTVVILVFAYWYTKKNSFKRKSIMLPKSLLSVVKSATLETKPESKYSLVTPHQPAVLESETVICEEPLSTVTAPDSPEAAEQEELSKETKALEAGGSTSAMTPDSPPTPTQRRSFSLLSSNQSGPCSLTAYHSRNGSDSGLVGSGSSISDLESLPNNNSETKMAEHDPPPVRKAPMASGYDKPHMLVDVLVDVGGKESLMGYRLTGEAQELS
Test: cell-based or functional assay

Binder	Ia (MHC class II) expression on P388D1 cells by FACS, peptide at 100 µM, 24 hours [fold]
LTNYSVTDLNVQRKAIHELIQVMAELSPAAKTGKRKRSQM [huIFNγ (95-134)]	10
AKFEVNNPQVQRQAFNELIRVVHQLLPESSLRKRKRSRC [muIFNγ (95-133)]	10

— patent publication US5770191, “Active C-terminal peptides of interferon--gamma and their use” (University of Florida, dated 1998)
